Assays:
[1] = target: human coxsackievirus and adenovirus receptor (CAR) (human) (UniProt P78310); assay: cell-based or functional assay
[2] = target: human coxsackievirus and adenovirus receptor (CAR) (human) (UniProt P78310); assay: flow cytometry, RmcB staining of 3T3 cells after Ad5CMVhCAR:CaPi gene transfer
[3] = target: human coxsackievirus and adenovirus receptor (CAR) (human) (UniProt P78310); assay: flow cytometry, RmcB staining of CHO cells after Ad5CMVhCAR:CaPi gene transfer

UniProt P78310, sequence (P78310 20-365): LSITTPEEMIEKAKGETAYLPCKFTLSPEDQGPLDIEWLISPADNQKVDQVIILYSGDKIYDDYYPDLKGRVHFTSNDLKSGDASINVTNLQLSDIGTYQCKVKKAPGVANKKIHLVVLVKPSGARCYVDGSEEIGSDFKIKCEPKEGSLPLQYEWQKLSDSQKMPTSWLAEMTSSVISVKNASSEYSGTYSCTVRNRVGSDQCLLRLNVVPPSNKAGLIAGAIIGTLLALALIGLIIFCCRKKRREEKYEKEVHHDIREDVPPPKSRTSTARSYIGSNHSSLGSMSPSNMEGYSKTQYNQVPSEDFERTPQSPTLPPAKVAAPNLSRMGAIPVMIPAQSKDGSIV

Ad5 fiber (endogenous, non-recombinant fiber of the control virus Ad5RSVeGFP) (from UniProt P11818 1-581)
infection of 3T3 cells after CAR gene transfer (% eGFP-positive by FACS; 3% without CAR) [1]: 21%
infection of CHO cells after CAR gene transfer (% eGFP-positive by FACS; 0% without CAR) [1]: 57%

monoclonal antibodies (mAbs) against CAR (RmcB) (antibody)
percent of cells positive for CAR [2]: 92%
percent of cells positive for CAR [3]: 96%
